The results in this text go back to publication PMC12637205, “A natural allele of the transcription factor gene TaMYB-D7b is a genetic signature for phosphorus deficiency in wheat”.

In the data set the target is TaMYB-D7b (2174 allele, Gly-50) (Triticum aestivum cv. 2174, UniProt A0A410P7J2). In words: EMSA; EMSA: 100 fmol biotin probe, 1 ug protein, 20 uL, 1x binding buffer, 2.5% glycerol, 5 mM MgCl2, 1 ug poly(dI-dC), room temperature 30 min; pH and salt not given. The following applies: protein: recombinant; tags: His (pET32a vector); label: 5'-biotin. A general note: In EMSA bound probe runs differently from free probe, usually more slowly.
Sequence of TaMYB-D7b (2174 allele, Gly-50) (A0A410P7J2 entry or part of it): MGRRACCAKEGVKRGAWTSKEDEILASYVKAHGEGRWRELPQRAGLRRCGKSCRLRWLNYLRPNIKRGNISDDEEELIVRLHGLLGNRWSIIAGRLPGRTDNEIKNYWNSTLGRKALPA

B1: TaCHSL-A2 promoter probe (27 bp) (dsDNA)
DNA 1: TGCAAAGAAAACCAACCAACACTTACC
DNA 2: GGTAAGTGTTGGTTGGTTTTCTTTGCA
B1: the binding result was “binds”.
